The values that follow come from publication PMC5695864.

What is called EC50 is the concentration needed to bring the measured effect to its halfway point. High values mean a need for much substance, low ones an effect from little substance.

The target in test [1] is core-fucosylated RNase B (21) (bovine) (UniProt P61823). In words: ELISA. In general terms: An ELISA detects its analyte on a solid surface through an enzyme-linked reagent.
In test [2] the target is S2G2F-rituximab (30), core-fucosylated sialyl complex type glycoform of rituximab (human). In words: ELISA.

Chain of UniProt P61823 (P61823 27-150): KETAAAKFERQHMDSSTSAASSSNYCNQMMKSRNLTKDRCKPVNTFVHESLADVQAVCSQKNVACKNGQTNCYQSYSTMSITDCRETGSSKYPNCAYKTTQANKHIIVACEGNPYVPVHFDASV

Take “Aleuria aurantia lectin (AAL) (from UniProt P18891 1-313) (natural protein)”: the concentration giving a half-maximal response (EC50) in test [1] is 275 µM.

B1: Aleuria aurantia lectin (AAL) (natural protein)
chain: MPTEFLYTSKIAAISWAATGGRQQRVYFQDLNGKIREAQRGGDNPWTGGSSQNVIGEAKLFSPLAAVTWKSAQGIQIRVYCVNKDNILSEFVYDGSKWITGQLGSVGVKVGSNSKLAALQWGGSESAPPNIRVYYQKSNGSGSSIHEYVWSGKWTAGASFGSTVPGTGIGATAIGPGRLRIYYQATDNKIREHCWDSNSWYVGGFSASASAGVSIAAISWGSTPNIRVYWQKGREELYEAAYGGSWNTPGQIKDASRPTPSLPDTFIAANSSGNIDISVFFQASGVSLQQWQWISGKGWSIGAVVPTGTPAGW
modifications: biotin (AAL-biotin)
On to B1, for which the EC50 in test [2] came to 15 µM. That is a double-digit micromolar value.
